Source: the supplement of paper PMC9170038

System: MS2 coat protein
Assay: apparent KD of MS2 coat protein; designed switch direction (-1 OFF switch, 1 ON switch): 1; higher = weaker reporter binding
How it was run: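 The apparent KD reported per design is the median over clusters of curve fits to normalised cluster fluorescence. The RNA switches were transcribed on Illumina chips by stalled E. coli RNA polymerase. SNAP-549-labelled MS2 coat protein was titrated from 0.7 or 1.5 nM, doubling up to 3 µM, in Tris-HCl pH 7.5 buffer containing KCl, MgCl2, BSA, DTT, tRNA and Tween-20, with no input, 200 uM small-molecule ligand, or an oligonucleotide input.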

[1] = input ligand: microRNA oligo, concentration not stated
[2] = Eterna round: R95, input ligand: FMN 200 uM
[3] = Eterna round: R95, input ligand: microRNA oligo, concentration not stated
[4] = Eterna round: R95, input ligand: none

Sequence	apparent KD of MS2 coat protein (input ligand: FMN 200 uM) [nM]	apparent KD of MS2 coat protein [1] [nM]	apparent KD of MS2 coat protein (input ligand: none) [nM]	apparent KD of MS2 coat protein [2] [nM]	apparent KD of MS2 coat protein [3] [nM]	apparent KD of MS2 coat protein [4] [nM]
GUAGCAUACCGAGGAUAUUCAUAUAAUAACAUGAGGAUCACCCAUGUAUAUAGGCGAAAGCCUUGGGAGAAGGCGGAAUGCUAC [Xeonanis - 20 Mod64] (Eterna round: R96, puzzle: Same State NG 2)	17.1	18.9	31	–	–	–
GUAGGACAUGAGGAUCACCCAUGUGGGAGGGAACGAGGAUAUGUGAUUAGCGAGGAGAGGACAGAAGGCGUGGUAG [JR_SS1_Sub024] (puzzle: Same State 1)	–	–	–	55.2	35.4	50.8
GUAUAACAUGAGGAUCACCCAUGUCAUCUAAGUCGAGGAUAUGGGAAUUAAUUAAUUAAACCAGAAGGCGAAAAUU [Mat - Same State 1 - D92] (puzzle: Same State 1)	–	–	–	79	364	492
GUGAAACAUGAGGAUCACCCAUGUAUGACGGGCACAGGAUAUCGUGGUUCGCUCAUACUACGAGAAGGGUGAAAAG [Inordien] (puzzle: Same State 1)	–	–	–	20.5	18	18.9
GUGCUCGUGUAAGGAUAUGCAGCCGUUUCGGCUGCAGAAGGUACUAUAAUACAUGAGGAUCACCCAUGUCUCUAUAAUUUGGUG [salish99_SSNG1_r04_904] (Eterna round: R96, puzzle: Same State NG 1)	–	107	–	–	–	–
GUGCUCGUGUGAGGAUAUGCGGCCGGGUCGGCUGCAGAAGGUACUAUUAUACAUGAGGAUCACCCAUGUCGCUUUUCUCCGGUG [salish99_SSNG1_r04_919] (Eterna round: R96, puzzle: Same State NG 1)	62.5	41.2	49	–	–	–
GUGGAGGGUUGAGGAUAUUGAAUACAUAUGUUUAACAUGAGGAUCACCCAUGUGGGUUGCGGUAUCGAGAAGGUAAAUUACUGG [salish99_SSNG2_r04_036] (Eterna round: R96, puzzle: Same State NG 2)	80.9	79	86.3	–	–	–
GUGGCUGCCACAGGAUAUACCGUGUAAUUCACGGUAGAAGGGUGAAGCACUCAAAAGAGUGCUAACAUGAGGAUCACCCAUGUG [Quzaon] (Eterna round: R96, puzzle: Same State NG 1)	1040	170	290	–	–	–
GUGGUCAGACAUGAGGAUCACCCAUGUGGAAUAAAUAACGUCAAGGAUAUUCAAUAUAGGAUAUAGAAGAAGGUGAGAUUGGUG (Eterna round: R96, puzzle: Same State NG 3)	–	142	–	–	–	–
GUGGUCAGACAUGAGGAUCACCCAUGUGGAAUAAAUAAGGAAAAGGAUAUCUAAUAUAGGAUAUAAGAGAAGGUUUGGUUGGUG (Eterna round: R96, puzzle: Same State NG 3)	74.1	52.1	64.7	–	–	–
GUGGUCAGACAUGAGGAUCACCCAUGUGGAAUAAAUAAGGAAUAGGAUAUGGAAUAUAGGAUAUACCAGAAGGAUUGGUUGGUG (Eterna round: R96, puzzle: Same State NG 3)	96.9	80.4	97	–	–	–
GUGGUCAGACAUGAGGAUCACCCAUGUGGAAUAAAUAAGGCAUAGGAUAUGAAAUAUAGGAUAUAUCAGAAGGAUGGGUUGGUG (Eterna round: R96, puzzle: Same State NG 3)	–	131	–	–	–	–
GUGGUCAGACAUGAGGAUCACCCAUGUGGAAUAAAUAAGGGACAGGAUAUCUAAUAUAGGAUAUAAGAGAAGGGUUGGUUGGUG (Eterna round: R96, puzzle: Same State NG 3)	69.3	44.8	73.5	–	–	–
GUGGUCAGACAUGAGGAUCACCCAUGUGGAAUAAAUAAGGGUCAGGAUAUCUAAUAUAGGAUAUAAGAGAAGGGAUGGUUGGUG (Eterna round: R96, puzzle: Same State NG 3)	89.2	89.4	82.7	–	–	–
GUGGUGGGUUGAGGAUAUUGGUUGUCGUUGUCCCACAUGAGGAUCACCCAUGUGGGUUGUGGUUUUGAGAAGGUUGGUUGCUGG [salish99_SSNG2_r04_052] (Eterna round: R96, puzzle: Same State NG 2)	–	12.9	–	–	–	–
GUGGUGUAGAUACAGGAUAUGUUGCUCGUAACAUGAGGAUCACCCAUGUAUAUAUGAGAUUAAAUGCAGAAGGGUGCACACCACG [Mat - Same State 2 - Mod of UCT - D76] (puzzle: Same State 2)	–	–	–	24.6	18.9	13.3
GUGGUGUAGAUACAGGAUAUGUUGCUCGUAACAUGAGGAUCACCCAUGUAUCUAUGAGAUUAAAUGCAGAAGGGUGCACACCACA [Mat - Same State 2 - Mod of UCT - D72] (puzzle: Same State 2)	–	–	–	24	460	297
GUUAAACAUGAGGAUCACCCAUGUAAUAAUAUGGGAGGAUAUCAGAAAUUAUGUAUUAAAUGAGAAGGCCUAAUUG [Mat - Same State 1 - Mod of Eli - D80] (puzzle: Same State 1)	–	–	–	125	585	769
GUUAAACAUGAGGAUCACCCAUGUAAUAAUAUGGGAGGAUAUGCGAAAUUAAUUAAUUAAGCAGAAGGCCUAAUUG [Mat - Same State 1 - D98] (puzzle: Same State 1)	–	–	–	38.3	148	217
GUUAAACAUGAGGAUCACCCAUGUCAAUGUAGUCGAGGAUAUGGGCAGCUAUGAGGCGUACUAGAAGGCGAAGAGG [Mat - Same State 1 - Mod of JL - D11] (puzzle: Same State 1)	–	–	–	121	236	334
GUUAAACAUGAGGAUCACCCAUGUCAAUGUAGUCGAGGAUAUGGGCAGCUGUGAGGCGUACUAGAAGGCGAAAAGG [Mat - Same State 1 - Mod of JL - D10] (puzzle: Same State 1)	–	–	–	–	266	–
GUUACAUGAGGAUCACCCAUGUAUGUGUGGGAGUAAGUGUCUUAGGAUAUCUAGUAAUUAAUUUAAGAGAAGGAAGAUUGUUGU [JMF's solution 54] (Eterna round: R96, puzzle: Same State NG 3)	133	93.5	134	–	–	–
